Measurements as given in publication PMC5404360, “Identification of a Novel (-)-5-Epieremophilene Synthase from Salvia miltiorrhiza via Transcriptome Mining” (Frontiers in Plant Science, 2017).
Residue numbers refer to the chain shown, from its start.

Legend:
Assay in all cases: GC-MS product quantification, Michaelis-Menten fit
Type in all cases: biochemical, Salvia miltiorrhiza
Conditions in all cases: Mg2+ (5 mM MgCl2), 25 mM HEPES pH 7.0, 5 mM DTT, 30°C, 5 min, FPP 2.3-184.6 μM
[1] = substrate: CC(C)=CCC/C(C)=C/CC/C(C)=C/CO[P@@](=O)(O)OP(=O)(O)O
Description: GC-MS product quantification, Michaelis-Menten fit on […]2

[2] = substrate: CC(C)=CCC/C(C)=C/CC/C(C)=C/CO[P@@](=O)(O)OP(=O)(O)O; remark: listed apart in the source
Description: GC-MS product quantification, Michaelis-Menten fit on […]3

[3] = substrate: CC(C)=CCC/C(C)=C/CC/C(C)=C/CO[P@@](=O)(O)OP(=O)(O)O; remark: listed apart in the source
Description: GC-MS product quantification, Michaelis-Menten fit on […]1

B1: SmSTPS2 (Salvia miltiorrhiza) (protein)
chain: MATTQVEIQRPIANFSPSLWGDQFIKNDSGAKAAEKHCKAVEELKKEVMNMITAGGSNLVEAMNLIDTLERLGISYHFEKEIDQKLNHFFNLNTDYSDEFYDLYTVSLHFRLFRQHGHRISSDIFGRWIDESGKFKEGLKTDGKGLLSLYEASYLRTRGETILDDALEFATATLNSIAPHLESPLSKQVVHALIQPLHYGNPRIEAHNFISIYEENQDKNEFLLKFAKLDYNLLQMLHKEELHEVSRWWKELDLVSKLPYARDRVVECFFWAMGVYHEPQYSRARIMLTKTITMTSIIDDTYDAYGVIEELDIFTEAIERWNIEEMDRLPEYVKPFYKALLELYEQFEEELAEEGRSYAAHYAIESLKELVRSYHVEAKWFIQGYLPPFEEYLKNALITCTYCYHTTTSLLGVESAVEEDFQWLAKKPKMLVAGLLICRVIDDIATYEVEKERGQSATGIESYMRDNNATIEEAVAKFFEIATDAWKDINEECLMPSPYSRDVLMRILNLERIIDVTYKGNEDGYTQPEKVLKPHIIALFVDPIKM
notes: full-length ORF, 546 aa, in pET-32a (N-terminal thioredoxin/His tag fusion, kept), E. coli Rosetta (DE3), Ni-NTA purified
Km [1]: 24.20 ± 0.84 µM | kcat [1]: 2.07 ± 0.13 s⁻¹ | kcat/Km [1]: 85600 ± 38200 M⁻¹ s⁻¹

B2: SmSTPS3 (Salvia miltiorrhiza) (protein)
chain: B1 chain with G55A, G56E, N91S, F100S
notes: as for B1
Km [2]: 10.44 ± 1.07 µM | kcat [2]: 1.53 ± 0.02 s⁻¹ | kcat/Km [2]: 148000 ± 13200 M⁻¹ s⁻¹

B3: SmSTPS1 (Salvia miltiorrhiza) (protein)
chain: MATTQAQIQRPIANFSPSLWGDQFIKNDPGAKAAEKHCKAVEELKKEVMNMITAAGSNLVEAMNLIDTLERLGISYHFEKEIDQKLKHFFNLNKDYSDESYDLYTVSLHFRLFRQHGHRISSDIFGRWIDESGKFKEGLKTDGKGLLSLYEASYLRTRGETILDDALEFATATLNSIAPHLESPLSKQVVHALIQPLHYGNPRIEAHNFISIYEENQDKNEFLLRFAKLDYNLLQMLHKEELNEVSRWWKELDLVSKLPYARDRVVECFFWAMGVYHEPQYSRARIMLTKTITMTSIIDDTYDAYGVIEELDIFTEAIERWNMEEMKKLPEYIQPFYKALLELYEQFEEELAEEGRSYAAHYAIESLKELVRSYHVEAKWFIQGYLPPFEEYLKNALITCTYCYHTTTSLLGVESAVEEDFEWLANKPKMLVAGLLICRVIDDIATYEVEKERGQSATGIESYMRDNNATIEEAVAKFFEIATDAWKDINEECLMPSPYSRDVLMRILNLERIIDVTYKGNEDGYTQPEKVLKPHIIALFVDPIKM
notes: as for B1
Km [3]: 25.35 ± 1.88 µM | kcat [3]: 2.09 ± 0.05 s⁻¹ | kcat/Km [3]: 82700 ± 40600 M⁻¹ s⁻¹
